120 sequences from the supplement of paper PMC10126150 can be followed below.

± gives the standard deviation of the averaged measurements.

The test system of this data set is ATP. Description: switch fluorescence ratio, 500 uM ATP over buffer (Cy3 cluster intensity, sum of 5 cycles each) (fold (ratio)); higher = stronger signal-on switching upon ATP binding; sequences stand for … in TCGTCGGCAGCGTCAGATGTGTATAAGAGACAGTTTTTTTTTTTTTTTTTTTTTTTTT…TC. The note with it: aptamer strand: ATP DNA aptamer (quencher-CACCTGGGGGAGTATTGCGGAGGAAGG + anchor), 100 nM annealed; ATP concentration: 500 uM. The procedure, abridged: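 Five buffer/ATP imaging cycles were run on Cy3-labelled switching-strand clusters on a modified Illumina MiSeq flow-cell, with NaOH stripping and re-annealing between cycles. In each cycle, clusters annealed to 100 nM quencher-labelled ATP aptamer were imaged in selection buffer, then after 15 min with 500 uM ATP at 22 °C. Per cluster, the fluorescence ratio is summed target-cycle over summed buffer-cycle Cy3 intensity, averaged per switch-domain sequence. Only clusters within 100-1000 RFU were kept.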
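Also: ATP exposure 15 min at 22 °C before imaging.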

Consider TAACGCCCTA, for which the switch fluorescence ratio amounted to 1.07 ± 0.019.

On to TAACGCCGTG, for which the switch fluorescence ratio came to 1.02 ± 0.029.

Regarding TAACGCTGCC, the switch fluorescence ratio came to 1.25 ± 0.12.

Regarding TAACGGCATG, the switch fluorescence ratio came to 1.031 ± 0.0035.

Take TAACGGGTTG: the switch fluorescence ratio amounted to 1.03 ± 0.029.

Consider TAACGTATGT, for which the switch fluorescence ratio is 0.9929 ± 0.0046.

Turning to TAACGTTTAT, the switch fluorescence ratio came to 1.01 ± 0.032.

For TAACTAAATT, the switch fluorescence ratio was 0.98675 ± 0.00031.

As for TAACTCAAGA, the switch fluorescence ratio is 0.9979 ± 0.0066.

As to TAACTGGGTT, the switch fluorescence ratio turned out to be 1.02 ± 0.036.

TAACTTATAA: the switch fluorescence ratio worked out at 0.991 ± 0.0024.

Turning to TAAGAAAGTT, the switch fluorescence ratio was found to be 1.41 ± 0.58.

With TAAGAAGTCT, the switch fluorescence ratio was 1.04 ± 0.048.

As for TAAGAATTCG, the switch fluorescence ratio turned out to be 1.04 ± 0.056.

Take TAAGAATTTG: the switch fluorescence ratio stood at 1.22 ± 0.34.

As to TAAGACATTT, the switch fluorescence ratio was found to be 1.03 ± 0.04.

As to TAAGAGAATT, the switch fluorescence ratio was 1.02 ± 0.023.

Regarding TAAGAGAGAA, the switch fluorescence ratio came out at 0.986 ± 0.021.

Turning to TAAGAGATTG, the switch fluorescence ratio came out at 1.01 ± 0.022.

Regarding TAAGAGCAGG, the switch fluorescence ratio is 1.1 ± 0.091.

For TAAGAGGCGC, the switch fluorescence ratio came to 0.958 ± 0.077.

On to TAAGAGGGGA, for which the switch fluorescence ratio was determined as 1.01 ± 0.027.

Take TAAGAGGGTC: the switch fluorescence ratio stood at 0.999 ± 0.041.

With TAAGAGGGTT, the switch fluorescence ratio stood at 1 ± 0.022.

For TAAGATAGGA, the switch fluorescence ratio worked out at 0.982 ± 0.013.

Take TAAGATAGTA: the switch fluorescence ratio turned out to be 0.993 ± 0.023.

As to TAAGATCTGG, the switch fluorescence ratio was 1.006 ± 0.0021.

Regarding TAAGATGACG, the switch fluorescence ratio stood at 1.13 ± 0.05.

As to TAAGATGAGA, the switch fluorescence ratio was 0.936 ± 0.0097.

With TAAGATTCGG, the switch fluorescence ratio turned out to be 0.968 ± 0.015.

Turning to TAAGATTGTA, the switch fluorescence ratio came out at 0.993 ± 0.032.

As for TAAGCAGAGG, the switch fluorescence ratio worked out at 1.17 ± 0.13.

With TAAGCATATG, the switch fluorescence ratio amounted to 1.011 ± 0.0037.

As to TAAGCCATCT, the switch fluorescence ratio worked out at 1.04 ± 0.054.

With TAAGCGATCA, the switch fluorescence ratio is 1.02 ± 0.018.

For the sequence TAAGCGGAAT, the switch fluorescence ratio was 1.03 ± 0.013.

For TAAGCTTTTT, the switch fluorescence ratio was 1 ± 0.033.

As for TAAGGATATG, the switch fluorescence ratio stood at 1.01 ± 0.0069.

Turning to TAAGGATTGT, the switch fluorescence ratio amounted to 1.032 ± 0.0063.

With TAAGGCCTGT, the switch fluorescence ratio amounted to 0.9978 ± 0.0099.

On to TAAGGCTTAT, for which the switch fluorescence ratio turned out to be 0.988 ± 0.016.

Consider TAAGGGAAAT, for which the switch fluorescence ratio was found to be 1 ± 0.065.

Consider TAAGGGCAAA, for which the switch fluorescence ratio is 1.02 ± 0.032.

As to TAAGGGCCTT, the switch fluorescence ratio stood at 0.992 ± 0.026.

With TAAGGGCGGA, the switch fluorescence ratio was determined as 1.01 ± 0.023.

On to TAAGGGGAAT, for which the switch fluorescence ratio worked out at 1 ± 0.039.

For the sequence TAAGGGGATA, the switch fluorescence ratio was found to be 1.06 ± 0.11.

Regarding TAAGGGGATC, the switch fluorescence ratio was found to be 0.987 ± 0.059.

Turning to TAAGGGGGG, the switch fluorescence ratio worked out at 1.01 ± 0.029.

Take TAAGGGGGT: the switch fluorescence ratio was 1 ± 0.031.

As to TAAGGGGTAA, the switch fluorescence ratio turned out to be 0.947 ± 0.019.

Consider TAAGGGGTTA, for which the switch fluorescence ratio came to 0.992 ± 0.029.

In the case of TAAGGGTTGC, the switch fluorescence ratio was determined as 1.03 ± 0.016.

On to TAAGGGTTGG, for which the switch fluorescence ratio is 0.978 ± 0.03.

As to TAAGGTAATA, the switch fluorescence ratio is 1.03 ± 0.051.

Take TAAGGTAGG: the switch fluorescence ratio turned out to be 0.967 ± 0.029.

Consider TAAGGTGGGT, for which the switch fluorescence ratio is 1.002 ± 0.0017.

For TAAGTAAATA, the switch fluorescence ratio is 0.9762 ± 0.004.

Take TAAGTCCTGT: the switch fluorescence ratio came to 0.998 ± 0.033.

TAAGTGCCAA: the switch fluorescence ratio turned out to be 1.01 ± 0.032.

TAAGTGGAAA: the switch fluorescence ratio was determined as 0.992 ± 0.05.

As to TAAGTGGAAT, the switch fluorescence ratio was determined as 0.999 ± 0.022.

TAAGTGGGGT: the switch fluorescence ratio was 0.979 ± 0.026.

As to TAAGTTAAGC, the switch fluorescence ratio worked out at 1 ± 0.064.

Turning to TAAGTTAGTT, the switch fluorescence ratio was 0.979 ± 0.027.

As for TAAGTTATAG, the switch fluorescence ratio was determined as 1.02 ± 0.042.

Consider TAAGTTATTT, for which the switch fluorescence ratio was determined as 0.986 ± 0.031.

Regarding TAAGTTTGTG, the switch fluorescence ratio amounted to 0.996 ± 0.05.

For TAATAATATT, the switch fluorescence ratio was 1 ± 0.018.

On to TAATAATTAA, for which the switch fluorescence ratio was found to be 0.992 ± 0.024.

Regarding TAATACGAGT, the switch fluorescence ratio was found to be 1.02 ± 0.014.

On to TAATACTGAA, for which the switch fluorescence ratio stood at 1.01 ± 0.029.

TAATACTTTT: the switch fluorescence ratio is 1.07 ± 0.098.

Turning to TAATAGAGGG, the switch fluorescence ratio came out at 1.03 ± 0.027.

Consider TAATAGGAAG, for which the switch fluorescence ratio is 1.26 ± 0.43.

With TAATAGGCTT, the switch fluorescence ratio worked out at 1.01 ± 0.027.

For the sequence TAATAGGGGC, the switch fluorescence ratio was 0.991 ± 0.05.

Consider TAATAGGGTG, for which the switch fluorescence ratio amounted to 1.08 ± 0.042.

Regarding TAATAGGGTT, the switch fluorescence ratio was determined as 1.01 ± 0.027.

For TAATAGTAGT, the switch fluorescence ratio came out at 0.997 ± 0.022.

Regarding TAATAGTATA, the switch fluorescence ratio is 1 ± 0.013.

For the sequence TAATAGTGGC, the switch fluorescence ratio amounted to 1.06 ± 0.068.

As to TAATAGTGGG, the switch fluorescence ratio came out at 1.03 ± 0.041.

As to TAATATCCTA, the switch fluorescence ratio stood at 1 ± 0.048.

For the sequence TAATATGGAG, the switch fluorescence ratio is 0.99 ± 0.034.

With TAATATTTAG, the switch fluorescence ratio is 0.9863 ± 0.0031.

Regarding TAATATTTT, the switch fluorescence ratio amounted to 0.966 ± 0.035.

On to TAATCACGGG, for which the switch fluorescence ratio worked out at 1.09 ± 0.017.

Take TAATCAGTAG: the switch fluorescence ratio was determined as 1.02 ± 0.015.

As to TAATCCACGG, the switch fluorescence ratio came out at 1.05 ± 0.064.

Regarding TAATCGAAGC, the switch fluorescence ratio was determined as 1 ± 0.048.

In the case of TAATCGGGCG, the switch fluorescence ratio came out at 1.02 ± 0.022.

TAATCTTTTG: the switch fluorescence ratio is 0.986 ± 0.026.

Turning to TAATGAAAAA, the switch fluorescence ratio is 1 ± 0.039.

As for TAATGAGGAA, the switch fluorescence ratio was found to be 1.004 ± 0.01.

Consider TAATGAGGCT, for which the switch fluorescence ratio is 1.03 ± 0.014.

With TAATGAGGTG, the switch fluorescence ratio is 1.04 ± 0.023.

On to TAATGAGTGC, for which the switch fluorescence ratio came out at 0.997 ± 0.04.

Turning to TAATGCCTGT, the switch fluorescence ratio was found to be 0.979 ± 0.021.

On to TAATGCTAAT, for which the switch fluorescence ratio is 1.07 ± 0.073.

TAATGGTGTG: the switch fluorescence ratio stood at 1 ± 0.022.

In the case of TAATGGTTAG, the switch fluorescence ratio came to 1.016 ± 0.0048.

On to TAATGTGGTT, for which the switch fluorescence ratio is 0.989 ± 0.033.

For TAATGTTCTC, the switch fluorescence ratio was 1.02 ± 0.011.

As for TAATGTTGCA, the switch fluorescence ratio came out at 1.02 ± 0.029.

Take TAATTAACAT: the switch fluorescence ratio turned out to be 0.9883 ± 0.0092.

Regarding TAATTAACTT, the switch fluorescence ratio stood at 1.09 ± 0.12.

For the sequence TAATTAATAC, the switch fluorescence ratio amounted to 1.08 ± 0.017.

On to TAATTAATAT, for which the switch fluorescence ratio came to 1 ± 0.048.

Regarding TAATTACTCA, the switch fluorescence ratio worked out at 1.045 ± 0.01.

As for TAATTAGAGT, the switch fluorescence ratio came to 0.967 ± 0.046.

Regarding TAATTAGTTT, the switch fluorescence ratio is 0.982 ± 0.015.

For the sequence TAATTATGCC, the switch fluorescence ratio was 1.05 ± 0.04.

On to TAATTATTTT, for which the switch fluorescence ratio was 1.01 ± 0.03.

As for TAATTCAGGT, the switch fluorescence ratio amounted to 1 ± 0.011.

TAATTCGTAC: the switch fluorescence ratio was 1.07 ± 0.078.

On to TAATTCTTAG, for which the switch fluorescence ratio came to 0.989 ± 0.02.

TAATTGAAAA: the switch fluorescence ratio came out at 1.14 ± 0.15.

For TAATTGCGGG, the switch fluorescence ratio turned out to be 0.9554 ± 0.0095.

As to TAATTGTTGC, the switch fluorescence ratio was 0.969 ± 0.016.
